From patent US20240279288A1, “APPLICATION OF PLANT JAZ PROTEINS AND DERIVED POLYPEPTIDES IN PREVENTION AND TREATMENT OF HUMAN AND ANIMAL TUMORS” (ANYANG INSTITUTE OF SINO-COTTON INDUSTRY INNOVATION, priority 2021, published 2024) come the findings set out here.

Holding throughout (type): binding, cotton
One assay has as its system GhTPL. As to the kind of experiment: Yeast two hybrid with GhTPL. The method, then:
(§1) The study on Arabidopsis had shown that the inhibition of JAZ protein on JA signaling was mainly achieved by inhibiting the transcription factor function of MYC, which had been experimentally verified by us in cotton. Based on the phylogenetic tree of Arabidopsis and cotton JAZs, we screened 6 cotton JAZs (GhJAZ1, GhJAZ7, GhJAZ9, GhJAZ10, GhJAZ11 and GhJAZ31), which were analyzed with GhMYC2, GhNINJA, GhTPL, GhHDA6, and GhCOI1 for yeast two hybrid. The amino acid sequence of GhJAZ1 was set forth in SEQ ID No. 4, and the corresponding encoding gene sequence was set forth in SEQ ID No. 39; the amino acid sequence of GhJAZ7 was set forth in SEQ ID No. 7, and the corresponding encoding gene sequence was set forth in SEQ ID No. 42; the amino acid sequence of GhJAZ9 was set forth in SEQ ID No. 2, and the corresponding encoding gene sequence was set forth in SEQ ID No. 37; the amino acid sequence of GhJAZ10 was set forth in SEQ ID No. 3, and the corresponding encoding gene sequence was set forth in SEQ ID No. 38; the amino acid sequence of GhJAZ11 was set forth in SEQ ID No. 5, and the corresponding encoding gene sequence was set forth in SEQ ID No. 40; and the amino acid sequence of GhJAZ31 was set forth in SEQ ID No. 9, and the corresponding encoding gene sequence was set forth in SEQ ID No. 44. The amino acid sequence of GhMYC2 was set forth in SEQ ID No. 71, and the corresponding encoding gene sequence was set forth in SEQ ID No. 72; the amino acid sequence of GhNINJA was set forth in SEQ ID No. 73, and the corresponding encoding gene sequence was set forth in SEQ ID No. 74; the amino acid sequence of GhTPL was set forth in SEQ ID No. 75, and the corresponding encoding gene sequence was set forth in SEQ ID No. 76; the amino acid sequence of GhHDA6 was set forth in SEQ ID No. 77, and the corresponding encoding gene sequence was set forth in SEQ ID No. 78; and the amino acid sequence of GhCOI1 was set forth in SEQ ID No. 79, and the corresponding encoding gene sequence was set forth in SEQ ID No. 80. […]

Another assay concerns GhHDA6. As to the kind of experiment: Yeast two hybrid with GhHDA6. The method, then:
as §1, with “44.” for “44. The amino acid sequence of GhMYC2 was set forth in SEQ ID No. 71, and the corresponding encoding gene sequence was set forth in SEQ ID No. 72; the amino acid sequence of GhNINJA was set forth in SEQ ID No. 73, and the corresponding encoding gene sequence was set forth in SEQ ID No. 74; the amino acid sequence of GhTPL was set forth in SEQ ID No. 75, and the corresponding encoding gene sequence was set forth in SEQ ID No. 76; the amino acid sequence of GhHDA6 was set forth in SEQ ID No. 77, and the corresponding encoding gene sequence was set forth in SEQ ID No. 78; and the amino acid sequence of GhCOI1 was set forth in SEQ ID No. 79, and the corresponding encoding gene sequence was set forth in SEQ ID No. 80.”

The subject of another assay is GhCOI1. As to the kind of experiment: Yeast two hybrid with GhCOI1. Conditions: in the presence of JA-Ile. The method, then: as §1
GhCOI1, sequence (as listed by the source): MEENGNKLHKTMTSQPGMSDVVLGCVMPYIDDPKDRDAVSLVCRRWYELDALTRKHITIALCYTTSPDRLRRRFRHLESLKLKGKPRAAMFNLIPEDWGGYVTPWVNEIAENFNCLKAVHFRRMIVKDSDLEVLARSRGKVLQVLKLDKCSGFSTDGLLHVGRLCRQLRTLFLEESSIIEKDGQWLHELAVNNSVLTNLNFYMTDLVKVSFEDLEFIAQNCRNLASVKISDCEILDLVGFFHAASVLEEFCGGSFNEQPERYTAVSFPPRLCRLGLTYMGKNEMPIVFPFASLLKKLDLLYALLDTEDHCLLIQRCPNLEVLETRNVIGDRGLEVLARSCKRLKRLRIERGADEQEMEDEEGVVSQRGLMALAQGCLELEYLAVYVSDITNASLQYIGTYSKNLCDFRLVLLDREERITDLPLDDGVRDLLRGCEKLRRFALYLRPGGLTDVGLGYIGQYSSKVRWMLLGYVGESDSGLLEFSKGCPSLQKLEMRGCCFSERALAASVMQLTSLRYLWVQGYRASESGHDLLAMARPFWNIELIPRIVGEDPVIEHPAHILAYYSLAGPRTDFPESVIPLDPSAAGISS

GhHDA6, sequence (as listed by the source): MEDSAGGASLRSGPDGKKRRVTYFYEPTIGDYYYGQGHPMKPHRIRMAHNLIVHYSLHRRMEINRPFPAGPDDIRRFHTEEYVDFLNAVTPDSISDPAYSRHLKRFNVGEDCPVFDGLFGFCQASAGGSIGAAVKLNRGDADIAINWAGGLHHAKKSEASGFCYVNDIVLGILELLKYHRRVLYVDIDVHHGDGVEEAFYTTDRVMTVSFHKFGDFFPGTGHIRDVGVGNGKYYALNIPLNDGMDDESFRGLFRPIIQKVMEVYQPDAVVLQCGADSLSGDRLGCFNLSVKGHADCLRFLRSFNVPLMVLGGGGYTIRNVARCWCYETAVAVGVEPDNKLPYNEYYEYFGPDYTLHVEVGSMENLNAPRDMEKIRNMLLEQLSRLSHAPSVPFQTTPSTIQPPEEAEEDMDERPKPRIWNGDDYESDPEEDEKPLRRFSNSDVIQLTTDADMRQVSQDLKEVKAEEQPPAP
GhTPL, sequence (as listed by the source): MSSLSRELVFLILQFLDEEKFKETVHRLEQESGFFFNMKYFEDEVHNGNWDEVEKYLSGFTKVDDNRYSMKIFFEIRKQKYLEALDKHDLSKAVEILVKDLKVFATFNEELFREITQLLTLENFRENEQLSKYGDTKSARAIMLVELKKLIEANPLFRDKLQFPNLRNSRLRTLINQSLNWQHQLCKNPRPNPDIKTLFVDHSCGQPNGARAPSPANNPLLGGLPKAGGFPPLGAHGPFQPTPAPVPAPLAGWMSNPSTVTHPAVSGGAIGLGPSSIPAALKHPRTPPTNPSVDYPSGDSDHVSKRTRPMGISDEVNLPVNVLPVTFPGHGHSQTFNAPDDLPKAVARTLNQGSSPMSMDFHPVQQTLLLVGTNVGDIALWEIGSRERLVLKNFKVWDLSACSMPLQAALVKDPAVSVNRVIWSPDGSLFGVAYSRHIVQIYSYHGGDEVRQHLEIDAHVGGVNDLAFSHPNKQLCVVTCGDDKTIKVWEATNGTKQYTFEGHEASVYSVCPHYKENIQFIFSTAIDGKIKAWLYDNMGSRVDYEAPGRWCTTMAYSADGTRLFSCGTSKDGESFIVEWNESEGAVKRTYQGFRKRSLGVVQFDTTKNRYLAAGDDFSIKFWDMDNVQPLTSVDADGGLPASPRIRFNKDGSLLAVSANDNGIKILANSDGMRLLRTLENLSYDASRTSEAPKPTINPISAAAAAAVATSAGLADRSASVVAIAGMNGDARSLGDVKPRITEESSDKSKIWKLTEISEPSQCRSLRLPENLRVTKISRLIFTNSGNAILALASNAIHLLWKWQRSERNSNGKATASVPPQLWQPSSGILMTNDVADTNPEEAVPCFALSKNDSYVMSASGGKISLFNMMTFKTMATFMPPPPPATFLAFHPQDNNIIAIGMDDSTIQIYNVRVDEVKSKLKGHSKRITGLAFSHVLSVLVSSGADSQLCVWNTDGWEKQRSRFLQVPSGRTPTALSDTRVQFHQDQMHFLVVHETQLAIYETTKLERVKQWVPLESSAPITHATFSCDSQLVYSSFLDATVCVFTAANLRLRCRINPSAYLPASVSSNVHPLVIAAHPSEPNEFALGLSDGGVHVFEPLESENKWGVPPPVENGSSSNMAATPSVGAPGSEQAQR

B1: GhJAZ1 after deletion of NT domain: GhJAZ1 mutant with NT domain deleted, protein sequence SEQ ID No. 83 (protein)
chain: MSSCSESTAMKPARSPEANGTPVVPPPTMNLFPLNDKSDDVCGRNGGNPKNLTSMDLFPQQAGLASKDDSPNKLEPQTAPMTIFYGGQVIVFNDFPANKAKEIMLLASNSSSQSNNSFNPIPFTSSIARSPIESSIGVPPTSKPVHPAQRAVPGDLPIARRASLHRFLEKRKDRITAKAPYQINNSAAAPSLSGDNKSWLGLAAQSP
With B1, the “interaction with GhTPL” value with GhTPL is listed as “significantly weakened”. Besides, the “interaction with GhHDA6” value in the assay with GhHDA6 is “significantly weakened”. In the assay with GhCOI1, the “interaction with GhCOI1” value is reported as “significantly weakened”.

B2: GhJAZ1: cotton JAZ1 protein, gene number Gh_A05G0260, sequence SEQ ID No. 4; prokaryotically expressed with His tag, about 30 KD (protein)
chain: MSSCSESTAMKPARSPEKPSFAQTCNLLSQYLKEKGSFGDLSLGMTCNVEANGTPVVPPPTMNLFPLNDKSDDVCGRNGGNPKNLTSMDLFPQQAGLASKDDSPNKLEPQTAPMTIFYGGQVIVFNDFPANKAKEIMLLASNSSSQSNNSFNPIPFTSSIARSPIESSIGVPPTSKPVHPAQRAVPGDLPIARRASLHRFLEKRKDRITAKAPYQINNSAAAPSLSGDNKSWLGLAAQSP
modifications: His tag
notes: prokaryotically expressed with His tag, about 30 KD
In the case of B2, in the assay with GhTPL, the “interaction with GhTPL” value was “interacted”. The “interaction with GhHDA6” value in the assay on GhHDA6 is “interacted”. In addition, in the assay on GhCOI1, the “interaction with GhCOI1” value is “interacted”.
